This note sets out measurements from patent publication US20210087291A1 (Hoffmann-La Roche, published 2021).

Values joined by “and” are separate entries in the source; they are usually repeats but may differ in a detail not shown here. Equal values may be shown once.

A word on the EC50: it is the concentration that produces a half-maximal response.

For test [1], the target named is T1, human FolR2 ECD-AcTev-Fcknob-Avi tag + Fc hole, biotinylated monomeric Fc fusion (human, UniProt P0DOX5 223-449 = IgG part).
T1 construct: also called huFolR2; FolR2-Fc
Nature of the test: SPR ProteOn, Fab analyte.
Protocol: (§1) Immobilization of antigens (ligand): Recombinant antigens were diluted with PBST (10 mM phosphate, 150 mM sodium chloride pH 7.4, 0.005% Tween 20) to 10 μg/ml, then injected at 30 μl/minute in vertical orientation. Injection of analytes: For ‘one-shot kinetics’ measurements, injection direction was changed to horizontal orientation, two-fold dilution series of purified Fab (varying concentration ranges) were injected simultaneously along separate channels 1-5, with association times of 150 or 200 s, and dissociation times of 200 or 600 s, respectively. Buffer (PBST) was injected along the sixth channel to provide an “in-line” blank for referencing. Association rate constants (kₒₙ) and dissociation rate constants (koff) were calculated using a simple one-to-one Langmuir binding model in ProteOn Manager v3.1 software by simultaneously fitting the association and dissociation sensorgrams. The equilibrium dissociation constant (KD) was calculated as the ratio koff/kₒₙ.

For test [2], the target named is T2, murine FolR1 ECD-AcTev-Fcknob-Avitag + Fc hole, biotinylated monomeric Fc fusion (murine, UniProt P0DOX5 223-449 = IgG part).
T2 construct: also called muFolR1; murine FolR1-Fc
Nature of the test: SPR ProteOn, Fab analyte.
Protocol: as §1

Test [3] addresses T3, human FolR1 ECD-AcTev-Fcknob-Avi tag + Fc hole, biotinylated monomeric Fc fusion (human, UniProt P0DOX5 223-449 = IgG part).
T3 construct: also called huFolR1; huFolR1-Fc
Nature of the test: SPR ProteOn, Fab analyte.
Protocol: as §1

The target of test [4] is T4, cynomolgus FolR1 ECD-AcTev-Fcknob-Avi tag + Fc hole, biotinylated monomeric Fc fusion (cynomolgus, UniProt P0DOX5 223-449 = IgG part).
T4 construct: also called cyFolR1; cyno FolR1-Fc
Put plainly: SPR ProteOn, Fab analyte.
Protocol: as §1

The target in test [5] is T5, human FolR3 ECD-AcTev-Fcknob-Avi tag + Fc hole, biotinylated monomeric Fc fusion (human, UniProt P0DOX5 223-449 = IgG part).
T5 construct: also called huFolR3; FolR3-Fc
Nature of the test: SPR ProteOn, Fab analyte.
Protocol: as §1

In test [6] the target is T6, monomeric human Tim3-ECD (human, UniProt Q8TDQ0 22-202).
T6 construct: also called huTim3
Nature of the test: SPR Biacore, monovalent Tim3. On the technique in general: In SPR one partner is held on a chip, and binding of the other changes the refractive index at the surface.
Protocol: (§2) Therefore, an anti-mouse IgG was immobilized by amine coupling to the surface of a (Biacore) CM5 sensor chip. The samples were then captured and hu/cy Tim3-ECD was bound to them. The sensor chip surface was regenerated after each analysis cycle. The equilibrium constant KD was finally gained by fitting the data to a 1:1 langmuir interaction model.
(§3) Flow cell temperature was set to 25° C. and sample compartment temperature to 12° C. The system was primed with running buffer. The samples were injected for 30 seconds with a concentration of 200 μg/ml and bound to the spots 1 and 5 of each flow cell, allowing the measurement of eight samples in parallel. Then a complete set of different (monomeric cyno, monomeric human and huFc fused dimeric human Tim3-ECD) concentrations (s. Table X) was injected over each sample for 240 s followed by a dissociation time of 30/1800 s (s. Table 1). Each analysis cycle (sample capture, spot 1 and 5—Tim3 ECD injection) was then regenerated with a 30 seconds long injection of Glycine-HCl pH 1.7. The flow rate was set to 30 μl/min for the whole run. Finally, the double referenced data was fitted to a 1:1 langmuir interaction model with the Biacore B4000 Evaluation Software.

Test [7] deals with T7, human TIM-3 on cells (human, UniProt Q8TDQ0 22-301).
T7 construct: also called CHO-Tim3; rec CHOK1 cells expressing huTIM-3
Nature of the test: flow cytometry, human CD14+ monocytes donor1. Background: A flow cytometer gives signals particle by particle.
Description: (§4) CD14+ Monocytes were isolated from anticoagulated peripheral blood of healthy donors by density gradient centrifugation using Ficoll-Paque (GE Healthcare) (see General Protocols in the User Manuals or visit www.miltenyibiotec.com/protocols) and subsequent positive selection via CD14 MicroBeads. First the CD14+ cells are magnetically labeled with CD14 MicroBeads. Then the cell suspension is loaded onto a MACS® Column which is placed in the magnetic field of a MACS Separator. The magnetically labeled CD14+ cells are retained in the column. The unlabeled cells run through, this cell fraction is depleted of CD14+ cells. After removal of the column from the magnetic field, the magnetically retained CD14+ cells can be eluted as the positively selected cell fraction. After centrifugation at 200×g for 10 min at room temperature the monocytes were harvested and used directly in binding assay or resuspended in freezing medium (10% DMSO, 90% FCS) at 1.0E+07 cells/ml and stored in liquid nitrogen.
(§5) 1×10⁵ CD14+ isolated human monocytes (50 μl/well) were put into 98 well-v bottom MTP in fresh culture medium and incubated with Redimune® NF Liquid for 15 min at RT to block unspecific binding. […] After washing and centrifugation MFI signals of stained cells were analyzed by BD Biosciences FACSCanto flow cytometer.

The target in test [8] is T8, Tim3-ECD-His-Biotin (human, UniProt Q8TDQ0 22-202).
T8 construct: also called human Tim3 (ELISA); Biochem Human
Nature of the test: ELISA, human Tim3; EC50 relative to the sample's max value.

The target in test [9] is T9, cynomolgus TIM-3 on isolated cyno CD14+ monocytes (cynomolgus).
T9 construct: whole, on cells
Put plainly: flow cytometry, cyno CD14+ monocytes cyno3.
Description: (§6) CD14+ Monocytes were isolated from cynomolgus monkey anticoagulated peripheral blood (Covance) by density gradient centrifugation using Ficoll-Paque (GE Healthcare) (see General Protocols in the User Manuals or visit www.miltenyibiotec.com/protocols) and subsequent positive selection via NHP CD14 MicroBeads. First the CD14+ cells are magnetically labeled with CD14 MicroBeads. Then the cell suspension is loaded onto a MACS® Column which is placed in the magnetic field of a MACS Separator. The magnetically labeled CD14+ cells are retained in the column. The unlabeled cells run through, this cell fraction is depleted of CD14+ cells. After removal of the column from the magnetic field, the magnetically retained CD14+ cells can be eluted as the positively selected cell fraction. After centrifugation at 200×g for 10 min at room temperature the monocytes were harvested and used directly in binding assay or resuspended in freezing medium (10% DMSO, 90% FCS) at 1.0E+07 cells/ml and stored in liquid nitrogen.
(§7) 1×10⁵ CD14+ isolated cyno monocytes (50 μl/well) were put into 98 well-v bottom MTP in fresh culture medium and incubated with Redimune® NF Liquid for 15 min at RT to block unspecific binding. Than 50 μl/well of Alexa488 labeled anti-TIM3 (10 μg/ml in cell culture medium) were added and incubated for 1 h at 4° C. After washing and centrifugation MFI signals of stained cells were analyzed by BD Biosciences FACSCanto flow cytometer.

In test [10] the target is T10, huFc fused dimeric human Tim3-ECD (human, UniProt Q8TDQ0 22-202).
T10 construct: also called huTim3Fc; bivalent Tim3
Nature of the test: SPR Biacore, bivalent Tim3.
Protocol: as §2, §3

The target in test [11] is T8, Tim3-ECD-His-Biotin. Nature of the test: ELISA, human Tim3.
Test [12] addresses T7, human TIM-3 on cells. Put plainly: cell ELISA, CHO-Tim3; EC50 relative to the sample's max value.
Test [13] has as its target T7, human TIM-3 on cells. Nature of the test: cell-based or functional assay.
In test [14] the target is T9, cynomolgus TIM-3 on isolated cyno CD14+ …. Nature of the test: flow cytometry, cyno CD14+ monocytes cyno2.
For test [15], the target named is T7, human TIM-3 on cells. Put plainly: flow cytometry, human CD14+ monocytes donor3.
Description: as §4, §5
Test [16] deals with T7, human TIM-3 on cells. Put plainly: cell ELISA, CHO-Tim3.
In test [17] the target is T11, cynomolgus Tim3 (ELISA) (cynomolgus, UniProt A0A2K5U3G7 22-193).
T11 construct: also called Biochem Cyno; cyno TIM3
T11 sequence: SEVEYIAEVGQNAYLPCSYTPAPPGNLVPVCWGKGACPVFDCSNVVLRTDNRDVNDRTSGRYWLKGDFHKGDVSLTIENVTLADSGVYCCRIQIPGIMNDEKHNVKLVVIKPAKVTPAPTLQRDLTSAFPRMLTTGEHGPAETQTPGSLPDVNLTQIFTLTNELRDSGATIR
Nature of the test: ELISA, cyno Tim3; EC50 relative to the sample's max value. (In general: ELISA stands for enzyme-linked immunosorbent assay.)

Test [18] deals with T9, cynomolgus TIM-3 on isolated cyno CD14+ …. Nature of the test: flow cytometry, cyno CD14+ monocytes cyno1.
Description: as §6, §7
Test [19] addresses T10, huFc fused dimeric human Tim3-ECD. Put plainly: SPR Biacore, antibody captured by anti-mouse IgG.
Protocol: as §2, §3
The target in test [20] is T6, monomeric human Tim3-ECD. Nature of the test: SPR Biacore, antibody captured by anti-mouse IgG.
Protocol: as §2, §3
For test [21], the target named is T12, monomeric cyno Tim3-ECD (cynomolgus, UniProt A0A2K5U3G7 22-195).
T12 construct: extracellular domain; also called cyTim3
T12 sequence: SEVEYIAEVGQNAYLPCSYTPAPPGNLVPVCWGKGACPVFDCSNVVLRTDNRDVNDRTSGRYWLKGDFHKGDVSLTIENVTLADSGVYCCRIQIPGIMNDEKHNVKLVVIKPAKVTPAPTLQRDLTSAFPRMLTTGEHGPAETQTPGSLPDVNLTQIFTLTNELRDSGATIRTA
Nature of the test: SPR Biacore, antibody captured by anti-mouse IgG.
Protocol: as §2, §3

Test [22] deals with T8, Tim3-ECD-His-Biotin. Put plainly: ELISA on Tim3-ECD-His-Biotin.
Protocol: After washing (3×90 μl/well with PBST-buffer) 25 μl aTim3 samples or diluted (1:2 steps) reference antibody aTim3 F38-2E2 (Biolegend) was added and incubated 1 h at RT. After washing (3×90 μl/well with PBST-buffer) 25 μl/well sheep-anti-mouse-POD (GE NA9310V) was added in 1:9000 dilution and incubated at RT for 1 h while shaking at 400 rpm rotation. After washing (4×90 μl/well with PBST-buffer) 25 μl/well TMB substrate (Calbiochem, #CL07) was added and incubated until OD 1.5-2.5. Then the reaction was stopped by addition of 25 μl/well 1N HCL-solution.
The target of test [23] is T7, human TIM-3 on cells. Put plainly: cell ELISA, CHO-K1 expressing human Tim3.
Protocol: Then the reaction was stopped by addition of 25 μl/well 1N HCL-solution.
Test [24] concerns the target T11, cynomolgus Tim3 (ELISA). Nature of the test: ELISA, cyno Tim3.
Test [25] has as its target T7, human TIM-3 on cells. Put plainly: flow cytometry, human CD14+ monocytes donor2.
Description: as §4, §5
The target of test [26] is T1, human FolR2 ECD-AcTev-Fcknob-Avi tag + …. Put plainly: SPR, IgG single injection.
For test [27], the target named is T3, human FolR1 ECD-AcTev-Fcknob-Avi tag + …. Nature of the test: SPR, IgG single injection.
Test [28] deals with T4, cynomolgus FolR1 ECD-AcTev-Fcknob-Avi …. Put plainly: SPR, IgG single injection.
Test [29] addresses T5, human FolR3 ECD-AcTev-Fcknob-Avi tag + …. Nature of the test: SPR, IgG single injection.

B1: 9D11 Fab (Fab, V domains shown)
VH: QVQLVQSGAEVKKPGASVKVSCKASGYTFTSYYMHWVRQAPGQGLEWMGIINPSGGPTSYAQKFQGRVTMTRDTSTSTVYMELSSLRSEDTAVYYCARGDFAWLDYWGQGTLVTVSS
VL: not shown
As to B1, the binding result in [1], in [2] and in test [5] was “no binding” throughout. Besides, the figures for the Kd in [3] and in test [4] were 8.64 nM and 5.29 nM, respectively.

B2: Tim3_0016 variant (Tim3_0018) (antibody, V domains shown)
VH: QVTLKESGPGILQPSQTLSLTCSFSGFSLSTSGMSVGWIRQPSGKGLEWLAHIWLNDDVFFNPALKRRLTISKDTSNNQVFLQIASVVTADTATYYCVRANGYLYALDYWGQGISVTVSS
VL: QIVLTQSPAIMSASPGQKVTITCSASSSVNYTQWYQQKLGSSPKLWIYDAFKLAPGVPARFSGSGTGTSYSLTISSMEAEDAASYFCHQWSSYPWTFGGGTKLEIK
notes: also called TIM3-0016 variant (0018); aTim3 0018
B2: the Kd amounted to 3.4 nM in [6]; 1.1 nM in [10]; 1.11 nM in [19]; 3.4 nM in [20]; 41.9 nM in test [21]. Moreover, the “specific binding MFI” value in [7] turned out to be 2330 MFI; in [15] it was 1940 MFI; in test [25] it was 1820 MFI. The EC50 is 0.0161 µg/mL in test [8]; 0.0264 µg/mL in test [12]; 0.0146 µg/mL in test [17]; 0.56 nM and 0.094 µg/mL in [22]; 0.52 nM and 0.087 µg/mL in [23]. Also, the MFI in [9] was determined as 417 MFI; in [14] it was 480 MFI; in [18] it was 301 MFI. For the same molecule, the values for the inflexion point in test [11], in test [16] and in test [24] were 15.3 ng/mL, 29.4 ng/mL and 14.6 ng/mL, respectively. The “IFN-gamma release in MLR at 1 µg/ml, % of IL-2 control” value in test [13] is 12%. Also, in test [13], the “IFN-gamma release in MLR at 10 µg/ml, % of IL-2 control” value came to 30%. For the same molecule, in test [13], the “IFN-gamma release in MLR at 40 µg/ml, % of IL-2 control” value came to 36%.

B3: 14E4 IgG (antibody, V domains shown)
VH: not shown
VL: EIVLTQSPGTLSLSPGERATLSCRASQSVSSSYLAWYQQKPGQAPRLLIYGASSRATGIPDRFSGSGSGTDSTLTISRLEPEDFAVYYCQQPTSSPITFGQGTKVEIK
notes: human IgG1
Regarding B3, the binding result in [26], in [27], in test [28] and in test [29] was “no binding (tested: 500 nM)” each time.

B4: 14E4 Fab (Fab, V domains shown)
VH: not shown
VL: EIVLTQSPGTLSLSPGERATLSCRASQSVSSSYLAWYQQKPGQAPRLLIYGASSRATGIPDRFSGSGSGTDSTLTISRLEPEDFAVYYCQQPTSSPITFGQGTKVEIK
B4: the binding result in [1], in test [3], in test [4] and in test [5] was “no binding” each time.

B5: 36F2 Fab (Fab, V domains shown)
VH: QVQLVQSGAEVKKPGASVKVSCKASGYTFTSYYMHWVRQAPGQGLEWMGIINPSGGSTSYAQKFQGRVTMTHDTSTSTVYMELSSLRSEDTAVYYCARSFFTGFHLDYWGQGTLVTVSS
VL: EIVLTQSPGTLSLSPGERATLSCRASQSVSSSYLAWYQQKPGQAPRLLIYGASSRATGIPDRFSGSGSGTDFTLTISRLEPEDFAVYYCQQYTNEHYYTFGQGTKVEIK
As to B5, the binding result in test [1] and in test [5] was “no binding” throughout. The Kd in [2] was determined as 737 nM; in test [3], 1810 nM; in test [4], 1640 nM.
